Measured values as given in the supplement of paper PMC12764529.
± gives the half width of the 95% confidence interval.

What was measured:
[1] = folding stability dG unfold (combined trypsin and chymotrypsin); higher = more stable
In short: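 Mini-proteins designed to be under 80 residues and free of cysteine were carried in a PA-tagged cDNA display construct and digested with trypsin and with chymotrypsin. Each protease was applied at 11 threefold-diluted concentrations, alongside a no-protease condition, before sequencing. K50 came from Bayesian fitting of the sequencing counts, and unfolding free energy was obtained by comparing it with a sequence-predicted unfolded-state K50 and a shared folded-state K50, for each protease separately or for both together. Designs were retained only if their AlphaFold2 dimer inter-PAE exceeded 15.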

[2] = folding stability dG unfold from chymotrypsin proteolysis; higher = more stable
Method: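 Folding stability of de novo designed mini-proteins (<80 aa, no Cys; designed by TrROS, TrMRF, ProteinMPNN and the joint model) was measured by cDNA display proteolysis with trypsin and chymotrypsin. Each protease was used at 11 concentrations in a threefold dilution series plus a no-protease condition. K50 was inferred by Bayesian fitting of sequencing counts, and dG unfold was derived against a sequence-predicted unfolded-state K50 (Tsuboyama et al. method). Sequences shown include variable-length N-terminal GS-type padding (SAGGSAGG...) inside a display construct carrying a PA tag. Rows were kept only if the AF2 dimer inter-PAE was >15, to exclude likely homo-oligomers.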

| Sequence | folding stability dG unfold [1] [kcal/mol] | folding stability dG unfold [2] [kcal/mol] |
| --- | --- | --- |
| SAGGMPLSTESFVQESSGDGTPFTTTKTTYRDVNGNPLVTPVSTVDPVAGTTTTTVTVDGTPVTTTTPSAGG [r13_948_JUSTAS] | -0.701 ± 0.17 | -0.386 ± 0.2 |
| SAGGMPVPKEKVKSVLYLPHPESDEPEVLVLAELGGKPVLFVIPSELSLEEAIKAVEEGVEAGPIDLGSAGG [r13_225_TrMRF] | -0.355 ± 0.27 | 0.402 ± 0.14 |
| SAGGMRLEHLRNMIKNMPPGMKDVNINQHPGHGNYTFSVENPNKPVSIPFDSPEDQQEIQELAREYVKSAGG [r13_287_TrROS] | -0.417 ± 0.29 | 0.19 ± 0.19 |
| SAGGMTITLPKNMTKEELEALAKKLEEETGLKVTIEYNEETNEVTITVEGLSEEEQERIKKLLEEAASAGGS [r16_227_TrROS_Hall] | > 6 | 3.49 ± 0.34 |
| SAGGMTVTIESVERLPGGVEVRRMVIETLDPNNPTPSTVERELVTEFTPSVDPEGRPGRLARREEVLGSAGG [r13_612_JUSTAS] | -0.237 ± 0.15 | 0.0887 ± 0.12 |
| SAGGMVLEKKSPSGTTTKTVVEETPDELYVKTTTLKGKTPTTSESVIPAPPPPPLPFPSGRPEELQLLSAGG [r13_691_JUSTAS] | < -1 | -0.632 ± 0.45 |
| SAGGNITPNQAKRQAQEIADWLAQEYQQQNPDMKVKVDVEVDPPDGEIKVDGEWPNGRPMAEITIPVKSAGG [r13_247_TrROS] | -0.618 ± 0.24 | -0.0106 ± 0.13 |
| SAGGNRIPIPVKEIANNLNEEGWEIDEVEIYNPDDGEPKGTIPPGDPIEIPPNAPNMTIKPKIKPRKSAGGS [r8_243_TrROS] | -0.169 ± 0.13 | 0.0841 ± 0.064 |
| SAGGPEAKIEIYKLPDGYYFISVETPDNGKPMSIPIPPGEEKKIKIEPGAPIRDISIYPVKPGDPEAFSAGG [r13_122_TrROS] | -0.158 ± 0.3 | 0.202 ± 0.33 |
| SAGGPIVTSEVVETRPLPDGSTLVTVKTTKLLPLPVETTAPDGTVSPVPPGTPPVTVTETHLVVLEPSAGGS [r16_693_JUSTAS] | 0.0694 ± 0.22 | 0.684 ± 0.055 |
| SAGGPNMRTVTIEIPPENLKKDPDGEPYSAQDIAKHIAKHLPPDNVEIEIDKIDPDNGWFKVTIIVPSAGGS [r16_284_TrROS] | -0.514 ± 0.44 | -0.0083 ± 0.2 |
| SAGGPNPKTVEIPSPGTPEDVRARVEELAAELRPRGRPVTVTVTVGSTPRTLALAEVASVPPDATATVGSAG [r5_626_JUSTAS] | < -1 | -0.933 ± 0.4 |
| SAGGPPDKSVTVTVTDEKGNPITYPVTASKPVPVYLDDPEKKLEFTVPPDSDFTAPVPPGRVSVDLRSAGGS [r16_456_JUSTAS] | 0.202 ± 0.12 | 0.637 ± 0.046 |
| SAGGRIKIDIDPHPNEPGQPVMIKIKHPNGEREIPIPPNQSPEELKEAADDLAEENGFPIDDVEIHPSAGGS [r16_753_TrROS] | 0.154 ± 0.16 | 0.661 ± 0.059 |
| SAGGRVKVEIYNPDSGRPMEIEINPGNGTLEIRNPNNGEPVHEFPIPDIKEIEIPFSPNGILIKIEVDSAGG [r13_720_TrROS] | -0.137 ± 0.33 | 0.281 ± 0.043 |
| SAGGSAAPPFKVEIETEALPGPVVTRTIKVEPGSTVTIYDPGRDEALTFPVAPGTELVFTFDGTDASAGGSA [r15_224_TrMRF] | 0.342 ± 0.1 | 0.849 ± 0.044 |
| SAGGSAARVVEEIPGVGLLIAKPPTSDEPEIVLSLAELEEARRRSGVPPELAALIAANPDLTLELVSAGGSA [r15_359_JUSTAS] | < -1 | -0.297 ± 0.43 |
| SAGGSADFQVEVERDPNNGYYEIEVRYPNGMPVEIEYNPKKNKIEVKVTPGFPPSMAENAAEELLDSAGGSA [r15_511_TrROS] | -0.535 ± 0.49 | 0.136 ± 0.058 |
| SAGGSAEKKINSPEEIKRFAKELEKKGIKILSIDAVKFPSGPVVEYKMPVLHPENGKLSTLYIKSGSAGGSA [r15_123_TrMRF] | < -1 | -0.352 ± 0.51 |
| SAGGSAEKPPIKIEIDTETDPGNGMYEVSIPIRQKNGKPKGTIDIPFNTPQQAEDWLEDLGFDKIESAGGSA [r15_127_TrROS] | < -1 | -0.865 ± 0.61 |
